The text below walks through data of patent US20240368275A1 (ELPIS BIOPHARMACEUTICALS, published 2024).

Usually EC50 stands for the concentration needed to bring the measured effect to its halfway point. A word on the Kd: it is the constant that tells how readily two partners part at equilibrium. One may read the koff as the first-order rate constant of dissociation. Usually kon stands for the second-order rate constant of association.

The target of test [1] is T1, Nectin4 on Nectin4 positive cancer cell lines (T47D, HT1376, HCC1500, HT-29) (human, UniProt Q96NY8 32-510).
T1 construct: whole, on cells; The cell line of each value is named under assay
T1 sequence (looked up): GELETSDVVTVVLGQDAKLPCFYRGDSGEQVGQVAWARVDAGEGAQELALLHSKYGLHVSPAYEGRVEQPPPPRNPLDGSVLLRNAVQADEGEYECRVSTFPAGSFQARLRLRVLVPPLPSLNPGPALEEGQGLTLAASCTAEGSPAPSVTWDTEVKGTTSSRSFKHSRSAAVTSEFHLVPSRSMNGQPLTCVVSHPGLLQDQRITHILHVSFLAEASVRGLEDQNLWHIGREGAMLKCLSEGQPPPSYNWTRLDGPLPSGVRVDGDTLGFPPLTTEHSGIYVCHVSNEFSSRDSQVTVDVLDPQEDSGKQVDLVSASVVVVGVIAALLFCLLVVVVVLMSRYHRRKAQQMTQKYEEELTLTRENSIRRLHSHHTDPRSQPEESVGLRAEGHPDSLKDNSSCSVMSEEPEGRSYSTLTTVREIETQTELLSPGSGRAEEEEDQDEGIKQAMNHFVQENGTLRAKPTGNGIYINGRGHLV
Put plainly: flow cytometry on HT1376 cells. For orientation: A flow cytometer gives signals particle by particle.

The target of test [2] is T2, CD3 on Jurkat cells (UniProt P07766 23-207, limits assumed).
T2 construct: whole, on cells; the whole CD3/TCR complex stands on the cells; also called Jurkat CD3
Put plainly: flow cytometry on Jurkat cells. Here is the method: (§1) Jurkat cells were plated at 100,000 cells/well in a 96-well plate with 50 μL of full media. Anti-Nectin4/CD3 antibodies were 3-fold serial titrated from 20 nM. 50 μL was added to the cells and incubated for 1 hours at room temperature with shaking. Samples were washed one time with flow buffer. […] Samples were washed once with flow buffer. Samples were stained with 100 uL Zombie Fixable Viability Dyes at 1:800 dilution per well and incubated in dark at room temperature for 30 mins. Samples were spun down at 1300 rpm for 5 minutes and washed once with 200 uL flow buffer. Reconstituted samples in 200 uL of flow buffer and read on Attune NxT cytometer. EC50 values for CD3 binding were calculated using Prism 8.1 software.

Test [3] has as its target T1, Nectin4 on Nectin4 positive cancer cell …. Kind of test: cell-based or functional assay.
In test [4] the target is T3, human CD3E HIS tagged protein (human, UniProt P07766 23-126).
T3 construct: not shown: HIS tag
Kind of test: SPR Biacore T200, bispecific captured on Protein A chip, CD3E-HIS injected. Here is the method:
(§2) The assay was run with Biacore T200 control software version 2.0. For each cycle, 1 ug/mL of anti-hNectin4/CD3 antibody was captured for 60 seconds at flow rate of 10 ul/min on flow cell 2 in 1×HBSP buffer on Protein A sensor chip. 2-fold serial diluted CD3E-HIS or hNectin4-HIS tagged protein was injected onto both reference flow cell 1 and anti-Nectin4/CD3 bispecific captured flow cell 2 for 150 seconds at flow rate of 30 ul/mins followed by wash for 300 seconds. The flow cells were then regenerated with Glycine pH2 for 60 seconds at flow rate of 30 ul/mins. 8 concentration points from 100 nM-0 nM (CD3E-HIS) or 300 nM-0 nM (Nectin4-HIS) was assayed per anti-Nectin4 IgG in a 96 well plate. The kinetics of Anti-Nectin4/CD3 bispecific binding to CD3E and Nectin4 proteins was analyzed with Biacore T200 evaluation software version 3.0. The specific binding response unit was derived from subtraction of binding to reference flow cell 1 from antibody captured flow cell 2. Table 10 below listed the kinetics results. ND means not determined. NA means data not available.
(In general: SPR reads the build-up and loss of mass on a sensor chip optically.)

The target in test [5] is T4, human Nectin4-HIS tagged recombinant protein (human, UniProt Q96NY8 32-349).
T4 construct: also called hNectin4-HIS; Nectin4 HIS tagged protein; not shown: HIS tag
T4 sequence (looked up): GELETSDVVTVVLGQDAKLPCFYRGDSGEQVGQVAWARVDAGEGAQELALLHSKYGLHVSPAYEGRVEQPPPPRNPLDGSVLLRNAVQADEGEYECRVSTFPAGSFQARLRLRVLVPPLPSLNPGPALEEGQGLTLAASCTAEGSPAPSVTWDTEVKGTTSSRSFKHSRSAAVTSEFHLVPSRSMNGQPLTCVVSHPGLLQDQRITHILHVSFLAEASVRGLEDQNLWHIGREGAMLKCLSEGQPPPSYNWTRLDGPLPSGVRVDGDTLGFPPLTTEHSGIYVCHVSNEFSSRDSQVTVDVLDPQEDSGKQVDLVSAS
Kind of test: ELISA, coated Nectin4 HIS tagged protein, bispecific titrated, anti-Human HRP. Here is the method:
(§3) An ELISA assay was developed to determine the EC₅₀ of anti-Nectin4/CD3 bispecific antibodies. Briefly, 384 well plate was immobilized with human CD3E or Nectin4 HIS tagged protein at final concentration of 2 ug/mL in 1×PBS in total volume of 25 uL per well. The plate was incubated overnight at 4° C. followed by blocking with 80 uL of superblock per well for 1 hour. Purified anti-Nectin4/CD3 was 3-fold serial titrated from 100 nM. 25 uL was added to human Nectin4/CD3 immobilized wells and incubated for 1 hour with shaking. The CD3E or Nectin4 binding was detected by adding 25 uL of anti-Human HRP diluted at 1:10000 in 1×PBST. In between each step, the plate was washed 3 times with […] in a plate washer. The plate was then developed with 20 ul of TMB substrate for 5 mins and stopped by adding 20 ul of 2N sulfuric acid. The plate was read at OD450 nm Biotek plate reader and then plotted in Prism 8.1 software to calculate EC50.

The target of test [6] is T4, human Nectin4-HIS tagged recombinant …. Kind of test: SPR Biacore T200, bispecific captured on Protein A chip, hNectin4-HIS injected. Here is the method:
as §2

Test [7] has as its target T2, CD3 on Jurkat cells. Put plainly: flow cytometry on Jurkat cells. Here is the method:
as §1
Similar methods of above mentioned were used to measure the binding activities of anti-Nectin4/CD3/IL-2 complexes to CHO/Nectin4 and Jurkat cells, respectively.
This is another data set of the same source.

Test [8] addresses T2, CD3 on Jurkat cells. Kind of test: cell-based or functional assay.
The target in test [9] is T5, full-length human Nectin4 with C-terminal flag and Myc tags on CHO cells (human, UniProt Q96NY8 32-510).
T5 construct: whole, on cells; also called Nectin4/CHO; CHO/Nectin4; not shown: C-terminal flag and Myc tags of pCMV6-Entry vector
T5 sequence (looked up): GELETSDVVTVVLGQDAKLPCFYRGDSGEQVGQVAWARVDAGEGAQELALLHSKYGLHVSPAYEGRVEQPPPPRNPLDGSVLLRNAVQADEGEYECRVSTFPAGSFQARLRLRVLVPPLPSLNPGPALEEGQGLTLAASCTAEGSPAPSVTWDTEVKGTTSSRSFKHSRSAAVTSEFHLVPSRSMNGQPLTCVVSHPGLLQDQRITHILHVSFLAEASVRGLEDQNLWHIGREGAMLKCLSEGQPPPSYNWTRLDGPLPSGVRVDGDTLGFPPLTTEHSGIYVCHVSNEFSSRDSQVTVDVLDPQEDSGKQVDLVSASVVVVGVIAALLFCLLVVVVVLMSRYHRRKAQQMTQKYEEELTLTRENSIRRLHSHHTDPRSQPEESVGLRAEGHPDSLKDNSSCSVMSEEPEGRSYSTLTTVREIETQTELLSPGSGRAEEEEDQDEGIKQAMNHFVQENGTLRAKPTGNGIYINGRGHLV
Put plainly: flow cytometry on CHO/Nectin4 cells. Here is the method: Nectin4/CHO Nectin4 cells were plated at 100,000 cells/well in a 96-well plate in 50 μL of full media. Cells were rested 1 hour at 37° C. Anti-Nectin4/CD3 was 3-fold serial titrated from 50 nM. 50 μL was added to the cells and incubated for 1 hours with shaking. Samples were washed one time with flow buffer. […] Samples were washed once with flow buffer. Samples were stained with 100 uL Zombie Fixable Viability Dyes (1:800 dilution) per well and incubated in dark at room temperature for 30 mins. Samples were spun down at 1200 rpm for 5 minutes and washed once with 200 uL flow buffer. Reconstituted samples in 200 uL of flow buffer and read on Attune NxT cytometer. EC₅₀ values for Nectin4 Binding were determined using Prism software.

The target of test [10] is T1, Nectin4 on Nectin4 positive cancer cell …. Kind of test: flow cytometry on T47D cells.
The target of test [11] is T3, human CD3E HIS tagged protein. Kind of test: ELISA, coated human CD3E HIS tagged protein, bispecific titrated, anti-Human HRP. Here is the method:
as §3
A general note: An ELISA detects its analyte on a solid surface through an enzyme-linked reagent.

Test [12] addresses T1, Nectin4 on Nectin4 positive cancer cell …. Kind of test: cell-based or functional assay. This is another data set of the same source.

Where two headings read alike, the source gives them in different places.

T2 sequence (P07766 23-207 limits assumed): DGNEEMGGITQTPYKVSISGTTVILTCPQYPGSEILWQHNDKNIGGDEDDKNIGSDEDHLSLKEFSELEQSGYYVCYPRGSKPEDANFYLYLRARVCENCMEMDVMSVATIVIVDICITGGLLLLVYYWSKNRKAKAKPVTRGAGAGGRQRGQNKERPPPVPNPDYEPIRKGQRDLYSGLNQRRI
T3 sequence (P07766 23-126 limits assumed): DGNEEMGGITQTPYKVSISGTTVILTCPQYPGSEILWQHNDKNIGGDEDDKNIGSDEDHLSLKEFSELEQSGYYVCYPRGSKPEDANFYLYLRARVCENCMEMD

B1: EP458/EP378/EP289 anti-Nectin4/CD3 bispecific antibody (bispecific antibody)
heavy 1: EVQLVQSGAEVKKPGASVKVSCKASGYTFTGYYMHWVRQAPGQGLEWMGRINPNSGGTNYAQKFQGRVTMTRDTSISTAYMELSGLRSDDTAVYFCARVTYNIGWYIDYWGQGTLVTVSSASTKGPSVFPLAPSSKSTSGGTAALGCLVKDYFPEPVTVSWNSGALTSGVHTFPAVLQSSGLYSLSSVVTVPSSSLGTQTYICNVNHKPSNTKVDKKVEPKSCDGGGGSGGGGSEVQLVESGGGLVQPGGSLRLSCAASGFTFSTYAMNWVRQAPGKGLEWVGRIRSKYNNYATYYADSVKGRFTISRDDSKNTLYLQMNSLRAEDTAVYYCVRHGNFGDSYVSWFAYWGQGTLVTVSSGGGGSGGGGSGGGGSGGGGSQAVVTQEPSLTVSPGGTVTLTCGSSTGAVTTSNYANWVQQKPGKSPRGLIGGTNKRAPGVPARFSGSLLGGKAALTISGAQPEDEADYYCALWYSNHWVFGGGTKLTVLEPKSCDKTHTCPPCPAPEAAGGPSVFLFPPKPKDTLMISRTPEVTCVVVDVSHEDPEVKFNWYVDGVEVHNAKTKPREEQYNSTYRVVSVLTVLHQDWLNGKEYKCKVSNKALGAPIEKTISKAKGQPREPQVCTLPPSRDELTKNQVSLSCAVKGFYPSDIAVEWESNGQPENNYKTTPPVLDSDGSFKLVSKLTVDKSRWQQGNVFSCSVMHEALHNHYTQKSLSLSPGK
heavy 2: not shown
light: QAVVTQPPSVSVAPGKTATITCGGNNIGSKGVHWYQQKPGQAPVLVIYYDTDRPSGIPERLSGSNSGNTATLTISRVEAGDEADYYCQVWDSSSDHPVFGGGTKLTVLGQPKANPTVTLFPPSSEELQANKATLVCLISDFYPGAVTVAWKADGSPVKAGVETTKPSKQSNNKYAASSYLSLTPEQWKSHRSYSCQVTHEGSTVEKTVAPTECS
notes: Bivalent for Nectin4: B09 heavy chain with sp34 scFv between CH1 and hinge, hole (EP458); B09 heavy chain knob (EP378); light chain EP289 pairs with both; also called EP458/378/289
As for B1, the EC50 in test [1] stood at 0.14 nM; with CD3 on Jurkat cells [2], 4.7 nM; in test [5], 0.21 nM; with CD3 on Jurkat cells [7], 4.37 nM; in [9], 0.146 nM; in test [10], 0.044 nM. Also, in test [11], the EC50 was found to be 0.011 nM. Also, in test [3], the “EC50 Values in CTL Assay Against T47D Cancer Cells (PBMC)” value was determined as 0.0047 nM. Besides, the “EC50 Values in CTL Assay Against T47D Cancer Cells (T cell)” value in test [3] was 0.0064 nM. In addition, the Kd in test [4] came out at 3.26 nM; in [6], 3.67 nM. Besides, the results for the koff in test [4] and in [6] were 0.000739 s⁻¹ and 0.000472 s⁻¹, respectively. The on-rate constant (kon) came out at 227000 M⁻¹ s⁻¹ in test [4] and 129000 M⁻¹ s⁻¹ in test [6]. Also, the “NFAT reporter EC50” value with CD3 on Jurkat cells [8] was found to be 0.0004 nM. The “EC50 Values in CTL Assay Against PBMC” value in test [12] was determined as 0.0014 nM.
